Test results reported in patent US20130315910A1 (Xencor, published 2013).

T1: human FcγRIIb receptor protein (R&D Systems) (human, UniProt P31994 46-217)
T1 construct: Bought protein injected over captured antibody in Biacore; also called CD32b
T1 sequence (looked up): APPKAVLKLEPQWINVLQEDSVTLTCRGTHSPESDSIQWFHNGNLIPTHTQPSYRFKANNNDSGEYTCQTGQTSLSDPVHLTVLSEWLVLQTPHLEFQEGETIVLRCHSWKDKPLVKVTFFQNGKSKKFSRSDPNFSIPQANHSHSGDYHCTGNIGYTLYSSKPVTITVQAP

T2: human FcγRIIa (131R), His- and GST-tagged (human, UniProt P12318 34-217)
T2 construct: Expressed in HEK293T cells, purified by nickel chromatography; also called R131 FcγRIIa; not shown: 6xHis and GST tags of the pTT5 vector
T2 sequence (looked up): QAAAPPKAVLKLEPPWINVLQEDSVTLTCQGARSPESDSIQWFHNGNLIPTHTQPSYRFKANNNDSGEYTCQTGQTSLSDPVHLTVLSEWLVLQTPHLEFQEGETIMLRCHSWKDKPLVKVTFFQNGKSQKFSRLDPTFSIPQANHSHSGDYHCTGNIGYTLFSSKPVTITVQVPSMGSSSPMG

T3: mFcγRIIb (Mus musculus, UniProt P08101)
T3 construct: extracellular region, C-terminal His- and GST-tag; also called mouse FcγRII
T3 sequence (receptor extracellular region, looked up): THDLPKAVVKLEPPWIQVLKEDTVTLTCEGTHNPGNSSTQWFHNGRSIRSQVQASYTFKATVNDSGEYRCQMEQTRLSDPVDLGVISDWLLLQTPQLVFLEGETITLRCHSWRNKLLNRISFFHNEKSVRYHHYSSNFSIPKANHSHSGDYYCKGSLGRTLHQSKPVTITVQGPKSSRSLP

T4: cynoFcγRIIb (Macaca fascicularis, UniProt A0A140HDP4)
T4 construct: extracellular region, C-terminal His- and GST-tag; also called cynomolgus monkey FcγRIIb
T4 sequence (receptor extracellular region): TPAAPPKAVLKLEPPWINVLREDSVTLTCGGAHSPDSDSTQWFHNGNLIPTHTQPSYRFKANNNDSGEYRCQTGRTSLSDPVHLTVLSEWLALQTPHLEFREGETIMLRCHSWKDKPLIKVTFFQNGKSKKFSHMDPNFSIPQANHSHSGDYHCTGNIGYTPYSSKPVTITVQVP

T5: mFcγRIV
T5 construct: also called mouse FcγRIV; not shown: C-terminal His and GST tags (named only on our card)
T5 chain: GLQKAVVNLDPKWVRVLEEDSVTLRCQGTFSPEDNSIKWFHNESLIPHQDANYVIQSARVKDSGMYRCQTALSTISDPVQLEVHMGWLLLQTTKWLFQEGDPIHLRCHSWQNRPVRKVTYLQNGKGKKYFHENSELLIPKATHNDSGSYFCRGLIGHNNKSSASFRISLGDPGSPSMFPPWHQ

T6: human FcγRIIa (131H), His- and GST-tagged (human, UniProt P12318 34-217)
T6 construct: also called H131 FcγRIIa; HIIa; not shown: 6xHis and GST tags of the pTT5 vector
T6 sequence (looked up): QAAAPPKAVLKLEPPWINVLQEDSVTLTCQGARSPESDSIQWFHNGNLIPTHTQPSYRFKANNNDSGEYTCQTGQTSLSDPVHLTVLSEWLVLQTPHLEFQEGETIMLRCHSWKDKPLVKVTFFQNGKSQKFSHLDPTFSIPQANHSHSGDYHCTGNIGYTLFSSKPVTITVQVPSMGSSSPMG

T7: human FcγRIIb on cells (transfected HEK293T cells; primary human B cells) (human, UniProt P31994 43-310)
T7 construct: whole, on cells; also called CD32b
T7 sequence (looked up): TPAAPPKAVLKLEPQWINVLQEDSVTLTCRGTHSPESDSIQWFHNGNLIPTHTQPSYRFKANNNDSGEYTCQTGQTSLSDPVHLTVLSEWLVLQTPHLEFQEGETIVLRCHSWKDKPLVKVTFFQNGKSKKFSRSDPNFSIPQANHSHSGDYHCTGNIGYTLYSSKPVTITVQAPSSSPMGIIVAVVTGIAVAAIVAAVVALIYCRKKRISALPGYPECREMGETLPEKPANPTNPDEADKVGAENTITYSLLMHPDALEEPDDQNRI


How the values were obtained:
[1] = target: T1, human FcγRIIb receptor protein (R&D …); test: SPR
[2] = target: T2, human FcγRIIa (131R), His- and …; test: SPR
[3] = target: T3, mFcγRIIb; test: SPR, Kd
Procedure: (§1) Variants were screened for receptor affinity using Biacore™ technology, also referred to as Biacore herein, a surface plasmon resonance (SPR) based technology for studying biomolecular interactions in real time. SPR measurements were performed using a Biacore 3000 instrument (Biacore, Piscataway, N.J.). A protein A/G (Pierce Biotechnology) CM5 biosensor chip (Biacore) was generated using a standard primary amine coupling protocol. All measurements were performed using HBS-EP buffer (10 mM HEPES pH 7.4, 0.15 M NaCl, 3 mM EDTA, 0.005% vol/vol surfactant P20, Biacore). Antibodies at 20 nM or 50 nM in HBS-EP buffer were immobilized on the protein A/G surface and FcγRs were injected. After each cycle, the surface was regenerated by injecting glycine buffer (10 mM, pH 1.5). Data were processed by zeroing time and response before the injection of FcγR and by subtracting appropriate nonspecific signals (response of reference channel and injection of running buffer). Kinetic analyses were performed by global fitting of binding data with a 1:1 Langmuir binding model using BIAevaluation software (Biacore).
(§2) Variant antibodies were tested for their affinity to mouse or cynologous monkey FcγRs using Biacore SPR as described above. Specifically, antibodies were first immobilized on a protein A/G chip to high density, and then followed by injections of the extracellular domain of the mouse or cynologous monkey FcγR of interest. Both association and dissociation phases were tracked in real time using the Biacore technology.

[4] = target: T4, cynoFcγRIIb; test: SPR, Kd
Procedure: as §1, §2

[5] = target: T8, cynoFcγRIIIa (Macaca fascicularis, UniProt Q8SPW2); test: SPR
T8 construct: extracellular region, C-terminal His- and GST-tag; also called cynomolgus monkey FcγRIIIa
T8 sequence (Q8SPW2 17-208): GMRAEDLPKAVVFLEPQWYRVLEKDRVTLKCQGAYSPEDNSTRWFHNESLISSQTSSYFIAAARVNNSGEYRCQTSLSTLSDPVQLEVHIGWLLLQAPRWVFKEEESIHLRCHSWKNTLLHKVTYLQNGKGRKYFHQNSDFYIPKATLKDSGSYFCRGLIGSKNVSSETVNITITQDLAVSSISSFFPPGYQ

[6] = target: T3, mFcγRIIb; test: SPR
[7] = target: T4, cynoFcγRIIb; test: SPR
[8] = target: T5, mFcγRIV; test: SPR
[9] = target: T9, human FcγRI receptor protein (R&D Systems) (human, UniProt P12314 16-288); test: SPR
T9 construct: also called soluble FcγRI; solFcγRI
T9 sequence (P12314 16-288 limits assumed): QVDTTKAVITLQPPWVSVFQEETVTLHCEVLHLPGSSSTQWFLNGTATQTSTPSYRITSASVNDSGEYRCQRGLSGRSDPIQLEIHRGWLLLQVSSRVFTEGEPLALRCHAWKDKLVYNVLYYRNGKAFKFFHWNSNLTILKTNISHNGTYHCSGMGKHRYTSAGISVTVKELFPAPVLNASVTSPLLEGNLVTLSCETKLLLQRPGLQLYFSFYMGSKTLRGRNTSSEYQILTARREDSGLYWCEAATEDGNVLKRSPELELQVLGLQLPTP

[10] = target: T10, human FcγRIIIa (158V), His- and GST-tagged (human, UniProt P08637 17-208); test: SPR
T10 construct: also called V158 FcγRIIIa; VIIIa; not shown: 6xHis and GST tags of the pTT5 vector
T10 sequence (P08637 17-208 F176V): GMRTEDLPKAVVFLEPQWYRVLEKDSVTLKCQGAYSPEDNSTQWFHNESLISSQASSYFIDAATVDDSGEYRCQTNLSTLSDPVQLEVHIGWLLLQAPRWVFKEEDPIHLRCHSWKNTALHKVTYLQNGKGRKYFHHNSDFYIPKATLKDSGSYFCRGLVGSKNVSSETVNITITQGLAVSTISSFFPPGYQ

[11] = target: T6, human FcγRIIa (131H), His- and …; test: SPR
[12] = target: T7, human FcγRIIb on cells (transfected …); test: flow cytometry on FcγRIIb-transfected 293T cells [top left panel]
Procedure: In order to validate the Biacore data and evaluate receptor binding of the variants on the cell surface, binding of select antibodies to cells expressing FcγRIIb was measured. […] HEK293T cells in DMEM with 10% FBS were transfected with human FcγRIIb cDNA in pCMV6 expression vector (Origene Technologies, Rockville, Md.), cultured for 3 days, harvested, washed twice in PBS, resuspended in PBS with 0.1% BSA (PBS/BSA), and aliquoted at 2×10^5 cells per well into 96-well microtiter plates. Fc variant antibodies were serially diluted in PBS/BSA then added to the cells and incubated with mixing for 1 h at room temperature. After extensive washing with PBS/BSA, phycoerythrin (PE)-labeled anti-human-Fab-specific goat F(ab′)2 fragment was added for detection. Cells were incubated for 30 min at room temperature, washed, and resuspended in PBS/BSA. Binding was evaluated using a FACSCanto II flow cytometer (BD Biosciences, San Jose, Calif.), and the mean fluorescence intensity (MFI) was plotted as a function of antibody concentration using Graph Pad Prism software (GraphPad Software, San Diego, Calif.) from which half-maximal binding (EC50) values were determined by sigmoidal dose response modeling.

[13] = target: T8, cynoFcγRIIIa; test: SPR, Kd
Procedure: as §1, §2

[14] = target: T1, human FcγRIIb receptor protein (R&D …); test: Biacore SPR, antibody captured on protein A/G chip, FcγR injected
[15] = target: T1, human FcγRIIb receptor protein (R&D …); test: Biacore SPR, Kd(native IgG1)/Kd(variant)
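Throughout, for Fold vs WT IgG1 (off-rate): fold improvement over WT IgG1 so higher means slower dissociation than WT.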

Binder | Fold vs WT IgG1 [1] [fold] | Kd [1] [nM] | Fold vs WT IgG1 [2] [fold] | Kd [2] [nM] | Fold vs WT IgG1 (off-rate) [5] [fold] | Fold vs WT IgG1 (off-rate) [6] [fold] | Fold vs WT IgG1 (off-rate) [7] [fold] | Fold vs WT IgG1 (off-rate) [8] [fold] | Fold vs WT IgG1 [9] [fold] | Kd [9] [nM] | Fold vs WT IgG1 [10] [fold] | Kd [10] [nM] | Fold vs WT IgG1 [11] [fold] | Kd [11] [nM] | other results
L234D/G236N/S267E (antibody, human IgG1, kappa, HuAM4G7 anti-CD19 IgG1 (m1) with these Fc substitutions, EU index; copies: 2 + 2) heavy: EVQLVESGGGLVKPGGSLKLSCAASGYTFTSYVMHWVRQAPGKGLEWIGYINPYNDGTKYNEKFQGRVTISSDKSISTAYMELSSLRSEDTAMYYCARGTYYYGTRVFDYWGQGTLVTVSSASTKGPSVFPLAPSSKSTSGGTAALGCLVKDYFPEPVTVSWNSGALTSGVHTFPAVLQSSGLYSLSSVVTVPSSSLGTQTYICNVNHKPSNTKVDKKVEPKSCDKTHTCPPCPAPEDLNGPSVFLFPPKPKDTLMISRTPEVTCVVVDVEHEDPEVKFNWYVDGVEVHNAKTKPREEQYNSTYRVVSVLTVLHQDWLNGKEYKCKVSNKALPAPIEKTISKAKGQPREPQVYTLPPSREEMTKNQVSLTCLVKGFYPSDIAVEWESNGQPENNYKTTPPVLDSDGSFFLYSKLTVDKSRWQQGNVFSCSVMHEALHNHYTQKSLSLSPGK light: DIVMTQSPATLSLSPGERATLSCRSSKSLQNVNGNTYLYWFQQKPGQSPQLLIYRMSNLNSGVPDRFSGSGSGTEFTLTISSLEPEDFAVYYCMQHLEYPITFGAGTKLEIKRTVAAPSVFIFPPSDEQLKSGTASVVCLLNNFYPREAKVQWKVDNALQSGNSQESVTEQDSKDSTYSLSSTLTLSKADYEKHKVYACEVTHQGLSSPVTKSFNRGEC | 5.11 | 287 | 0.728 | 1180 | – | – | – | – | – | – | – | – | – | – | binding result [3]: no binding; binding result [4]: no binding
S267D (antibody, human IgG1, kappa, HuAM4G7 anti-CD19 IgG1 (m1) with this Fc substitution, EU index; copies: 2 + 2) heavy: not shown light: DIVMTQSPATLSLSPGERATLSCRSSKSLQNVNGNTYLYWFQQKPGQSPQLLIYRMSNLNSGVPDRFSGSGSGTEFTLTISSLEPEDFAVYYCMQHLEYPITFGAGTKLEIKRTVAAPSVFIFPPSDEQLKSGTASVVCLLNNFYPREAKVQWKVDNALQSGNSQESVTEQDSKDSTYSLSSTLTLSKADYEKHKVYACEVTHQGLSSPVTKSFNRGEC | 4.45 | 330 | 8.99 | 95.5 | 1.27 | 1.95 | 1.03 | 1.27 | 2.11 | 0.156 | 1.51 | 127 | 0.93 | 695 | EC50 (read off the curve) [12]: ~0.03 µg/mL
S267E/L328Y (antibody, human IgG1, kappa, HuAM4G7 anti-CD19 IgG1 (m1) with these Fc substitutions, EU index; copies: 2 + 2) heavy: not shown light: DIVMTQSPATLSLSPGERATLSCRSSKSLQNVNGNTYLYWFQQKPGQSPQLLIYRMSNLNSGVPDRFSGSGSGTEFTLTISSLEPEDFAVYYCMQHLEYPITFGAGTKLEIKRTVAAPSVFIFPPSDEQLKSGTASVVCLLNNFYPREAKVQWKVDNALQSGNSQESVTEQDSKDSTYSLSSTLTLSKADYEKHKVYACEVTHQGLSSPVTKSFNRGEC | 43.1 | 34.1 | 122 | 7.06 | – | 7.92 | 1.93 | – | 0.224 | 1.47 | – | – | 1.34 | 481 | binding result [10]: no binding; binding result [13]: no binding
anti-CD19 antibody HuAM4G7 IgG1 S267A (antibody, Positions in EU numbering; copies: 2 + 2) heavy: not shown light: DIVMTQSPATLSLSPGERATLSCRSSKSLQNVNGNTYLYWFQQKPGQSPQLLIYRMSNLNSGVPDRFSGSGSGTEFTLTISSLEPEDFAVYYCMQHLEYPITFGAGTKLEIKRTVAAPSVFIFPPSDEQLKSGTASVVCLLNNFYPREAKVQWKVDNALQSGNSQESVTEQDSKDSTYSLSSTLTLSKADYEKHKVYACEVTHQGLSSPVTKSFNRGEC | – | – | 4.29 | 200 | 1.27 | 3.02 | 1.05 | 1.53 | 1.15 | 0.287 | 0.952 | 201 | 1.22 | 530 | Kd [14]: 408 nM; fold affinity relative to native IgG1 [15]: 3.6 fold
